Experimental data reported in IntAct's records for PubMed 20837657.

B1: Segment polarity protein dishevelled (Drosophila melanogaster (Fruit fly)), P51140 (parent)
chain: MDADRGGGQETKVIYHIDDETTPYLVKIPIPSAQVTLRDFKLVLNKQNNNYKYFFKSMDADFGVVKEEIADDSTILPCFNGRVVSWLVSADGTNQSDNCSELPTSECELGMGLTNRKLQQQQQQHQQQQQQQQQQHQQQQQQQQQQVQPVQLAQQQQQQVLHHQKMMGNPLLQPPPLTYQSASVLSSDLDSTSLFGTESELTLDRDMTDYSSVQRLQVRKKPQRRKKRAPSMSRTSSYSSITDSTMSLNIITVSINMEAVNFLGISIVGQSNRGGDGGIYVGSIMKGGAVALDGRIEPGDMILQVNDVNFENMTNDEAVRVLREVVQKPGPIKLVVAKCWDPNPKGYFTIPRTEPVRPIDPGAWVAHTQALTSHDSIIADIAEPIKERLDQNNLEEIVKAMTKPDSGLEIRDRMWLKITIPNAFIGADAVNWVLENVEDVQDRREARRIVSAMLRSNYIKHTVNKLTFSEQCYYVVNEERNPNLLGRGHLHPHQLPHGHGGHALSHADTESITSDIGPLPNPPIYMPYSATYNPSHGYQPIQYGIAERHISSGSSSSDVLTSKDISASQSDITSVIHQANQLTIAAHGSNKSSGSSNRGGGGGGGGGGNNTNDQDVSVFNYVL

Variants of: B1
Settings: with abl_drome Abl

Variant | effect of a mutation on the interaction
Y473F | decreasing interaction strength
